Laboratory results: publication PMC9765892, “Molecular identification and functional characterization of two glycosyltransferases genes from Fallopia multiflora” (Frontiers in Plant Science, 2022)

B1: FmUGT2 (Pleuropterus multiflorus) (protein)
chain: MTISKTANLVLIPAPGMGHLAPAIELAKHLVARDPRLSITVLLIKGFVPEETVESYILSLKSNSSLLNQGIGFIDIPQIDLNSARPSFLTHMNAYQPKVKEAIEGLRSAGPLPVAGLLVDMFCTSTIDVATELGLPSYVFFTSGAGLLRLFFHLHGLGVDVAQEYDVVRSPDTLLEIPGFRNPVPVKVLPGRFLSKDGQSSTFLRLADKFRQAKGILVNTCMEIDRDLIQSMSQQDIEIPPIYPVGPILNLPTEDDHGHDDDESSGKDPITRWLDDQPPRSVVFLCFGSRGTFNDTQIKEIAVGLERSGQRFLWSLRQRPGETGVPLELDDPSKVLPEGFFERTAEKGRVIGWAPQARVLAHKAVGAFVSHCGWNSTLESFWYGVPIAAWPIYAEQQLNAFVLVKELGLATEIRIDYCQDFGINMVVKAEEVEDGINKAMKETEVKKKVKEMCDKARKALEEGGSSYESIGRFIEVVFKNLP
notes: full length, 482 residues (ORF 1449 bp); pET-32a (BamH I) in E. coli Transetta (DE3), Ni-NTA purified

Columns and labels:
FmUGT1 = biological target: T1, FmUGT1 (Pleuropterus multiflorus, UniProt A0A9E7V1Q5); assay: HPLC glycosylation assay; Lineweaver-Burk plot; type: biochemical; details: 0.8 mM UDP-glucose; 0.05 M Tris-HCl; 5-480 μM substrate; pH and temperature of kinetics not stated; substrate assigned from methods
T1 construct: gene UGT; full length, 533 residues (ORF 1602 bp); pET-32a (BamH I) in E. coli Transetta (DE3), Ni-NTA purified
T1 sequence (A0A9E7V1Q5 entry or part of it): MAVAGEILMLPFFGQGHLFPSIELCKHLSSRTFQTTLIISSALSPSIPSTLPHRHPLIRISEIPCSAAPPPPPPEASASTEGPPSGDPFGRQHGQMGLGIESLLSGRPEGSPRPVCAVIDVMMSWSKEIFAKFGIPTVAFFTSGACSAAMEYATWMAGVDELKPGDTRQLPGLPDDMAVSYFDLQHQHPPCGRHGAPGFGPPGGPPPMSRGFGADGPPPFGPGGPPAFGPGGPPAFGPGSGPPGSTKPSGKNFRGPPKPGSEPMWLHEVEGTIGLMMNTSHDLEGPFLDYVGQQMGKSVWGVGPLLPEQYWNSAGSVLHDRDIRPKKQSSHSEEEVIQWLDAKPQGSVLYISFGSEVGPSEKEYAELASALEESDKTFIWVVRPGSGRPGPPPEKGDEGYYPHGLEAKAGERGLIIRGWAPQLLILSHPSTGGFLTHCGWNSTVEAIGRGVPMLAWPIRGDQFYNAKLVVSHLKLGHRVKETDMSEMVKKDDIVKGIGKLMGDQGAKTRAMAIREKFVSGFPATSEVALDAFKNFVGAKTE
Text: HPLC glycosylation assay; Lineweaver-Burk plot on FmUGT1 | using THSG and emodin as the substrate for FmUGT1 and FmUGT2, respectively

[1] = substrate: Cc1cc(O)c2c(c1)C(=O)c1cc(O)cc(O)c1C2=O; assay: HPLC glycosylation assay; Lineweaver-Burk plot; type: biochemical, Pleuropterus multiflorus; details: 0.8 mM UDP-glucose; 0.05 M Tris-HCl; 5-480 μM substrate; pH and temperature of kinetics not stated; substrate assigned from methods
Text: HPLC glycosylation assay; Lineweaver-Burk plot on FmUGT2 | using THSG and emodin as the substrate for FmUGT1 and FmUGT2, respectively

Row | Molecule | Km (FmUGT1) [µM] | Km [1] [µM] | kcat [1] [s⁻¹]
1 | OC[C@H]1O[C@@H](Oc2c(O)cc(O)cc2/C=C/c2ccc(O)cc2)[C@H](O)[C@@H](O)[C@@H]1O [compound 1, THSG] | 236 |  | 
2 | B1 |  | 185 | 0.1413
